In the supplement of paper PMC10567573:

B1: KRT34 (parent)
chain: PTVDLNQVLNETRSQYEALVETNR
B2: MYBL2 (parent)
chain: FSPSQFLNFWNKQDTLELESPSLT

Variants of: B1
Experiment: protein stability index of a GFP-peptide fusion (GPS, HEK-293T) (PSI 1-6); higher = more stable
Settings: c terminus: a fixed tail appended
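Note: lentivirally expressed fusions sorted by FACS into six bins by GFP to DsRed ratio, PSI derived from sequencing read proportions per bin multiplied by bin number.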

Protein stability index of substitutions, site by site:
T22: S 4.36 | V 1.71 | W 4.02 | Y 4.23
N23: A 4.03 | C 3.47 | D 5.04 | E 5.16 | F 3.71 | G 4.04 | H 4.05 | I 2.79 | K 3.95 | L 2.41 | M 3.12 | P 4.04 | Q 4.52 | R 4.11 | S 4.39 | T 3.99 | V 3 | W 2.53 | Y 3.52
R24: A 3.51 | C 2.56 | D 4.95 | E 3.88 | F 2.5 | G 4.17 | H 4.08 | I 3.11 | K 4.32 | L 2.68 | M 2.51 | N 4.74 | P 4.58 | Q 4.18 | S 4.81 | T 3.8 | V 2.17 | W 3.55 | Y 2.29

Variants of: B2
Experiment: as above
Settings: c terminus: a fixed tail appended

Protein stability index: each site, then its substitutions
F1: A 3.77 | C 2.62 | D 4.27 | E 4.58 | G 2.83 | H 2.13 | I 3 | K 3.75 | L 3.51 | M 3.3 | N 3.3 | P 4.2 | Q 3.74 | R 3.06 | S 4.11 | T 3.75 | V 3.72 | W 2.73 | Y 4.39
S2: A 2.65 | C 2.66 | D 1.92 | E 2.08 | F 2.14 | H 3.45 | I 3.87 | K 1.99 | L 2.79 | M 3.62 | N 2.38 | P 2.13 | Q 2.71 | R 2.26 | T 3 | V 3.06 | W 2.98 | Y 1.63
P3: A 3.83 | D 3.71 | E 1.6 | F 3.08 | G 2.41 | H 1.94 | I 3.19 | K 2.02 | L 2.69 | M 2.3 | N 2.38 | Q 3.52 | R 2.39 | S 2.18 | T 2.94 | V 1.77 | W 2.18 | Y 3.74
S4: A 2.14 | C 2.91 | D 1.79 | E 2 | F 3.04 | G 4.19 | H 2 | I 4.06 | K 2.53 | L 2.12 | M 3.27 | N 3.63 | P 2.14 | Q 4.58 | T 3.36 | V 2.57 | W 2.35 | Y 2.98
Q5: A 2.55 | C 3.02 | D 2.75 | F 2.31 | G 3.07 | H 2.79 | K 2.44 | M 2.95 | N 2.27 | P 3.49 | R 2.6 | S 2.83 | T 3.6 | W 2.86 | Y 2.29
F6: A 2.02 | C 1.61 | D 2.59 | E 4 | H 2.6 | K 2.86 | L 4.19 | N 2.21 | P 3 | Q 3.08 | R 3.66 | S 2.31 | T 1.5 | V 2.39 | W 2.7
L7: A 3.29 | C 3.24 | F 2.6 | G 2.59 | H 3.34 | I 3.39 | K 2.97 | M 3.04 | N 3.1 | P 2.25 | Q 2.92 | R 2.38 | T 3.42 | V 3.57 | W 2.38 | Y 2.76
N8: A 3.07 | D 2.08 | F 4.01 | I 4.12 | K 2.74 | L 3.22 | M 3.6 | P 2.91 | Q 2.17 | R 2.93 | S 3.58 | T 3.92 | V 3.44 | W 2.9 | Y 2.06
F9: A 1.87 | C 2.17 | D 2.98 | E 2.43 | G 1.6 | H 2.43 | I 3.65 | K 2.44 | L 2.98 | M 1.63 | N 2.29 | P 2.48 | Q 2.15 | R 2.13 | S 1.83 | T 1.96 | V 3.09 | W 2.84 | Y 1.74
W10: A 2.48 | C 2.5 | D 3.87 | E 3.51 | F 2.18 | G 2.93 | H 2.77 | I 2.28 | K 2.8 | L 2.06 | M 2.17 | N 3.38 | P 3.45 | Q 3.5 | R 2.62 | S 2.91 | T 2.98 | V 1.89 | Y 2.63
N11: A 1.4 | C 4.67 | D 3.14 | E 2.73 | F 2.14 | G 2.56 | I 2.5 | L 3.89 | P 2.51 | Q 2.77 | R 2.48 | S 2.99 | T 2.79 | Y 3.26
K12: A 2.9 | D 3.15 | E 2.25 | F 2.97 | G 4.46 | H 2.4 | I 3.21 | M 3.42 | N 2.84 | P 3.55 | Q 1.93 | R 2.52 | S 2.02 | T 2.59 | V 4.37 | Y 3.78
Q13: A 3.54 | D 3.51 | F 2.17 | H 3.41 | I 4.44 | M 3.43 | N 3.24 | P 2.06 | R 1.21 | S 3.98 | T 2.4 | V 2.94 | W 3.25 | Y 3.56
D14: A 2.94 | C 4.04 | F 3.92 | G 2.94 | H 2.39 | K 4.25 | L 2.6 | M 2.63 | P 2.98 | Q 2.89 | R 4.08 | S 1.31 | V 3.22 | Y 3.5
T15: A 3.05 | C 2.54 | D 2.09 | E 2.4 | F 2.34 | G 3.51 | H 3.8 | I 2.92 | K 2.68 | L 3.22 | M 3.12 | N 3 | P 2.48 | Q 1.82 | R 2.54 | S 4.29 | W 3.33 | Y 1.38
L16: A 3.1 | C 2.68 | D 3.85 | E 1.26 | F 3.19 | G 4.14 | H 3.68 | I 2.58 | K 2.75 | M 2.56 | P 2.29 | Q 3.33 | R 4.02 | S 2.5 | T 1.5 | V 2.19 | Y 3.49
E17: A 1.07 | C 2.41 | D 3.02 | F 1.84 | H 2.37 | I 3.94 | K 2.48 | L 3.9 | M 3.58 | N 2.33 | P 1.74 | Q 3.02 | R 2.45 | S 3.58 | T 2.41 | V 3.59 | W 2.71 | Y 2.41
L18: C 2.55 | D 2.79 | E 3.1 | F 3.19 | G 2.58 | H 1.77 | I 2.61 | K 2.98 | M 2.88
